This note sets out measurements from patent US20140120095A1 (Boehringer Ingelheim, published 2014).

In experiment [1] the target is T1, PIGF (UniProt P49763-2 21-149, limits assumed).
T1 construct: also called placenta growth factor
T1 sequence (looked up): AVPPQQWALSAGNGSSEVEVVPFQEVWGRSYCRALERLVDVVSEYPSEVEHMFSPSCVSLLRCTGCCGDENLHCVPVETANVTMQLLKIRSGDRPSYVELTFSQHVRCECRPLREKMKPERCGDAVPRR
As to the kind of experiment: solid phase binding ELISA on coated PIGF (Example 12.8). The method, then:
(§1) Binding to VEGFB, VEGFC, VEGFD and PIGF is assessed via a solid phase binding ELISA. […] Wells are blocked with a casein solution (1% in PBS). […] As positive controls serial dilutions of the appropriate receptors are taken along and detected with horseradish peroxidase (HRP)-conjugated goat anti-human IgG, Fc specific antibody (Jackson Immuno Research Laboratories Inc., West Grove, Pa., USA) and a subsequent enzymatic reaction in the presence of the substrate TMB (3,3′,5,5′-tetramentylbenzidine) (Pierce, Rockford, Ill., USA).

The target in experiment [2] is T2, VEGFD (UniProt O43915 93-201, limits assumed).
T2 sequence (looked up): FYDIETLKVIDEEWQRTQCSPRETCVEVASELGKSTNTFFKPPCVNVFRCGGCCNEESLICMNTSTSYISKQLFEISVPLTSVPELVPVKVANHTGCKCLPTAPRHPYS
As to the kind of experiment: solid phase binding ELISA on coated VEGF D (Example 12.8). On the procedure:
as §1

Experiment [3] concerns the target T3, VEGFB (UniProt P49765-2 22-188, limits assumed).
T3 sequence (looked up): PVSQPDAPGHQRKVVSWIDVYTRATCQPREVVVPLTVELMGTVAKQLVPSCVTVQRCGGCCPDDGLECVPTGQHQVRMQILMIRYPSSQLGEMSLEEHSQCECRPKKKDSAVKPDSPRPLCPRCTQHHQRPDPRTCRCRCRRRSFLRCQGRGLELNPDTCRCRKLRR
As to the kind of experiment: binding ELISA on coated VEGFB (Example 12.8), OD 450 nm. On the procedure: as §1

Experiment [4] concerns the target T4, VEGFC (UniProt P49767 103-227, limits assumed).
T4 sequence (looked up): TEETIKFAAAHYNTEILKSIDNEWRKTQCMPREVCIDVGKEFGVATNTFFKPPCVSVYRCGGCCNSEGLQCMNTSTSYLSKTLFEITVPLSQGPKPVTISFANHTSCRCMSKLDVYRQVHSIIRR
Briefly: binding ELISA on coated VEGFC (Example 12.8), OD 450 nm. On the procedure: as §1

B1: VEGFBII022 (VHH)
chain: EVQLVESGGGLVQTGDSLRLSCEVSGRTFSSYSMGWFRQAQGKEREFVVAISKGGYKYDSVSLEGRFTISKDNAKNTVYLQINSLKPEDTAVYYCASSRAYGSSRLRLADTYEYWGQGTQVTVSSGGGGSGGGSEVQLVESGGGLVQPGGSLRLSCVASGIRFMSMAWYRQAPGKHRELVARISSGGTTAYVDSVKGRFTISRDNSKNTVYLQMNSLKAEDTAVYYCNTFSSRPNPWGAGTQVTVSS
notes: bivalent (heterodimeric) VHH; also called VEGFBII23B04-9GS-5B05
For B1, the binding result in experiment [1] is “no binding (tested: about 5e-7 M)”; in experiment [2], “no binding (tested: about 5e-7 M)”; in experiment [3], “no binding (tested: 5e-7 M)”; in experiment [4] it was “no binding (tested: 5e-7 M)”.

B2: VEGFBII023 (VHH)
chain: EVQLVESGGGLVQTGDSLRLSCEVSGRTFSSYSMGWFRQAQGKEREFVVAISKGGYKYDSVSLEGRFTISKDNAKNTVYLQINSLKPEDTAVYYCASSRAYGSSRLRLADTYEYWGQGTQVTVSSGGGGSGGGGSGGGGSGGGGSGGGGSGGGGSGGGGSGGGGSEVQLVESGGGLVQAGGSLRLSCAASGRTFSNYAMGWFRQAPGKERVLVADISSSGINTYVADAVKGRFTISRDNAKNTVYLQMNSLKPEDTAVYYCAASAWWYSQMARDNYRYWGQGTQVTVSS
notes: bivalent (heterodimeric) VHH; also called VEGFBII23B04-40GS-10E07
In the case of B2, the binding result is given as “no binding (tested: about 5e-7 M)” in experiment [1], “no binding (tested: about 5e-7 M)” in experiment [2], “no binding (tested: 5e-7 M)” in experiment [3] and “no binding (tested: 5e-7 M)” in experiment [4].

B3: VEGFBII021 (VHH)
chain: EVQLVESGGGLVQTGDSLRLSCEVSGRTFSSYSMGWFRQAQGKEREFVVAISKGGYKYDSVSLEGRFTISKDNAKNTVYLQINSLKPEDTAVYYCASSRAYGSSRLRLADTYEYWGQGTQVTVSSGGGGSGGGGSGGGGSGGGGSGGGGSGGGGSGGGGSGGGGSEVQLVESGGGLVQPGGSLRLSCVASGIRFMSMAWYRQAPGKHRELVARISSGGTTAYVDSVKGRFTISRDNSKNTVYLQMNSLKAEDTAVYYCNTFSSRPNPWGAGTQVTVSS
notes: bivalent (heterodimeric) VHH; also called VEGFBII23B04-40GS-5B05
For the molecule B3, the binding result in experiment [1] is on record as “no binding (tested: about 5e-7 M)”; in experiment [2] it was “no binding (tested: about 5e-7 M)”; in experiment [3], “no binding (tested: 5e-7 M)”; in experiment [4] it was “no binding (tested: 5e-7 M)”.
